T1: Ccl1 (yeast, UniProt P37366 1-393)
T1 sequence: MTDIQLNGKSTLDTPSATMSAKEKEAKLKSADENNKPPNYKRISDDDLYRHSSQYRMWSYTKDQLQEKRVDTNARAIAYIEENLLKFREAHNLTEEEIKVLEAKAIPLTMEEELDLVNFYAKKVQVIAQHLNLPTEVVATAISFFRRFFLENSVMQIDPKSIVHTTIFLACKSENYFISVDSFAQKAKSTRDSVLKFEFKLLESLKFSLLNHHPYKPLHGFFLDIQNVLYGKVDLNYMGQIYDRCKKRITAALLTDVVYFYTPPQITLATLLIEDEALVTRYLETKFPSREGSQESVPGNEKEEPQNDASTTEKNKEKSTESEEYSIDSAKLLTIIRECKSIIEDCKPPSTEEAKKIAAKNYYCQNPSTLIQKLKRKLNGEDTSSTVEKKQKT

B1: Kin28 (enzyme)
chain: MKVNMEYTKEKKVGEGTYAVVYLGCQHSTGRKIAIKEIKTSEFKDGLDMSAIREVKYLQEMQHPNVIELIDIFMAYDNLNLVLEFLPTDLEVVIKDKSILFTPADIKAWMLMTLRGVYHCHRNFILHRDLKPNNLLFSPDGQIKVADFGLARAIPAPHEILTSNVVTRWYRAPELLFGAKHYTSAIDIWSVGVIFAELMLRIPYLPGQNDVDQMEVTFRALGTPTDRDWPEVSSFMTYNKLQIYPPPSRDELRKRFIAASEYALDFMCGMLTMNPQKRWTAVQCLESDYFKELPPPSDPSSIKIRN
modifications: phosphothreonine at 162 (pT162)
B2: Tfb3 (natural protein)
chain: MLMDEYEENKDMCPICKTDRYLSPDVKFLVNPECYHRICESCVDRIFSLGPAQCPYKGCDKILRKNKFKTQIFDDVEVEKEVDIRKRVFNVFNKTIDDFNGDLVEYNKYLEEVEDIIYKLDHGIDVAKTEEKLRTYEELNKQLIMNNLERSRTEIESFEQRQKFEKEMKLKKRLLERQIEEEERMNKEWTKKEIVNRLSTTTQDINETIEGVKNTVKLKKSSARRKLEELNRVLKNNPYFNSNVNVQNSRLKDAVPFTPFNGDREAHPRFTLKGSVYNDPFIKDLEHRKEFIASGFNTNYAYERVLTEAFMGLGCVISEEL

What was measured:
Tfb3 = molecular target: B2; assay: cryo-EM structure
Ccl1 = molecular target: T1, Ccl1; assay: cryo-EM structure

| binding result (Tfb3) | binding result (Ccl1) | Binder |
| --- | --- | --- |
| binds | binds | B1 |
|  | binds | B2 |

— publication PMC8026125 (Science Advances, 2021)
